The values below come from PMC12311796.

For data set [1], the target named is T1, BRD4 N-terminal tandem bromodomain fragment (BD1-BD2) (Homo sapiens, UniProt O60885 49-460). Briefly: SPR; 1-200 uM ODN; SPR: 10 mM HEPES pH 7.4, 150 mM NaCl, 50 uM EDTA, 0.005% P20, 24 C; MST: PBS, 0.05% Tween-20, 22 C; NMR: 20 mM Na-phosphate pH 7.5, 80 mM KCl, 5% D2O, 25 C; nucleosome: 20 mM Tris-HCl pH 8.0, NaCl 2 M to 250 mM. As to conditions: protein: recombinant, tags: N-terminal His8 (RED-tris-NTA label for MST; Ni-NTA capture for SPR).

Data set [2] concerns the target T1, BRD4 N-terminal tandem bromodomain …. Description: SPR; SPR: 10 mM HEPES pH 7.4, 150 mM NaCl, 50 uM EDTA, 0.005% P20, 24 C; MST: PBS, 0.05% Tween-20, 22 C; NMR: 20 mM Na-phosphate pH 7.5, 80 mM KCl, 5% D2O, 25 C; nucleosome: 20 mM Tris-HCl pH 8.0, NaCl 2 M to 250 mM. The note with it: protein: recombinant; tags: N-terminal His8 (RED-tris-NTA label for MST; Ni-NTA capture for SPR); parallel 3-quartet G4; unimolecular fraction about 50% in the NMR sample. (Surface plasmon resonance follows binding to a sensor surface in real time, without labels.)

Data set [3] shares this target. Briefly: NMR; 80 mM KCl; 1:2 BRD4:G4 model; SPR: 10 mM HEPES pH 7.4, 150 mM NaCl, 50 uM EDTA, 0.005% P20, 24 C; MST: PBS, 0.05% Tween-20, 22 C; NMR: 20 mM Na-phosphate pH 7.5, 80 mM KCl, 5% D2O, 25 C; nucleosome: 20 mM Tris-HCl pH 8.0, NaCl 2 M to 250 mM. The note with it: protein: recombinant; tags: N-terminal His8 (RED-tris-NTA label for MST; Ni-NTA capture for SPR); parallel 3-quartet G4; unimolecular fraction about 50% in the NMR sample.

Data set [4] shares this target. Briefly: SPR; no ligand; SPR: 10 mM HEPES pH 7.4, 150 mM NaCl, 50 uM EDTA, 0.005% P20, 24 C; MST: PBS, 0.05% Tween-20, 22 C; NMR: 20 mM Na-phosphate pH 7.5, 80 mM KCl, 5% D2O, 25 C; nucleosome: 20 mM Tris-HCl pH 8.0, NaCl 2 M to 250 mM. The note with it: protein: recombinant; tags: N-terminal His8 (RED-tris-NTA label for MST; Ni-NTA capture for SPR); duplex flanks around G4 with opposing C-rich strand; about 50% G4 folded without PDS.

B1: dsCntr (dsDNA)
DNA 1: ATCACACTTGGCTTTCAACCAGTCTATGCTGCAGCTGATCA
DNA 2: TGATCAGCTGCAGCATAGACTGGTTGAAAGCCAAGTGTGAT
As for B1, in data set [1] (blunt), the binding result is recorded as “no binding”.
Take CCCCCTCCCCCTCCCCCTCCCCC (structured_DNA) [iM]: the binding result in data set [1] (i-motif) was “no binding”.
By Kd is commonly meant the constant that tells how readily two partners part at equilibrium. As to GGGAGGGAGGGAGGG (structured_DNA) [G4 (SE G4)], the Kd was 5 ± 3 µM in data set [2] and 6 ± 1 µM in data set [3].

B2: dsG4 (mixed)
DNA 1: ATCACACTTGGCAGGGAGGGAGGGAGGGATGCAGCTGATCA
DNA 2: TGATCAGCTGCATCCCTCCCTCCCTCCCTGCCAAGTGTGAT
As for B2, the equilibrium dissociation constant (Kd) in data set [4] came to 5 ± 3 µM.
Consider CAATCGGATCGAATTCGATCCGATTG (structured_DNA) [ds26], for which, in data set [1] (hairpin), the binding result was “no binding”.
